Test results published in the DeepSol protein solubility set.

Test: soluble on expression in E. coli; label from the status in PepcDB or PDB records

Sequence	soluble on expression in E. coli
MGSDKIHHHHHHMSRVGIPRSLFYYYYYPLWKSFFSDLGVEILTSAPSNRHTVERGIELAVDETCFPIKVYLGHVAELCREELDYLFIPRLVSVEARSYICPKFMGLPDIVRALIKETPPLIDITVDLSRDEKCFKKDIIRVGRLFTRQASRIQLAYQHGCEELRLCRSLASQGFTMEEAIKIWEGGAMEAEPETDLNIGVLGHGYSLYDERISMNLVKRLRAMNCKVLLPEHLGSEVVEAEAATVPKRVFWTLGRKMLGSALHLSQREDVDGIIYLACFGCGPDSLIGEIIERKVRDCKPFILLTVDEHSGEAGIITRLEAFCDMLRRRRNCGSESKLSPYGVSLHSFENTV	not soluble
ETDCRWDGCSQEFDSQEQLVHHINSEHIHGERKEFVCHWGGCSRELRPFKAQYMLVVHMRRHTGEKPHKCTFEGCRKSYSRLENLKTHLRSHTGEKPYMCEHEGCSKAFSNASDRAKHQNRTHSNEKPYVCKLPGCTKRYTDPSSLRKHVKTVHG	soluble
MENVSDDRFAEMVWEAVSGGATLKDVHGIPQDMMEGLYAHAYDFYHKGRLDEAETFFRFLCIYDFYNPDYIMGLAAVCQLKKQFQKAVDLYAVAFALSKNDYRPVFFTGQCQLFMRKAAKARQCFELVCEQSGLEHHHHHH	not soluble
MGSDKIHHHHHHERHEFIIEVVGNAYLDDVMDWYQPSYGDYLVQAHPVIVLYYPDESYAYYERATFYEQYNDFVAAAGVIVDTADLKNDLGRIWNSYYPIYDVDVWWQADREEWQARVKGLTRDVNITTFFVVTFNGRDNYCEVVDIKDEGEIYLDNNGVYHLGPLSGVDGFAAFVQENPSRLTLESNTKILGAEVRWIK	not soluble
MAFLPLYIPKGRRLKIVIVGGGYAGIAALVTLHRYSPDAEITLIDPGIDHLKITHLHETFRYPLSDFLVPYAFLEQRFGCRHIRSALAVDESMLCQWQRDRYLQVDDQQVPFDYLLVASGARSFTRNETDERTAADAENIVRLENFFTVSGADLLDRFLATQDRAGNTAPSCISVVGGGATGIQFLFELAGYLRRRRINHGLQLVDDNERVLQRYPGGFARYVEMRMLELDIEFYPGVCFLEQRADTVLLEDKTSGRHFELPSVLSLVFTGNRQDNLIKTNAFGQVMVDGKPLGNIFAAGDCSVYPSLGSNTMTAQSAVRKGKLAARNILRHSGVLKVLEPYLHHDLGYVVSLGPEDAVGWLAVENNVVTGVPALAIKEIVEAQYDLLLSGVDTYLVLEHHHHHH	not soluble
MGSSHHHHHHSSGLVPRGSHVHNKVTIIGSGPAAHTAAIYLARAEIKPILYEGMMANGIAAGGQLTTTTEIENFPGFPDGLTGSELMDRMREQSTKFGTEIITETVSKVDLSSKPFKLWTEFNEDAEPVTTDAIILATGASAKRMHLPGEETYWQKGISACAVCDGAVPIFRNKPLAVIGGGDSACEEAQFLTKYGSKVFMLVRKDHLRASTIMQKRAEKNEKIEILYNTVALEAKGDGKLLNALRIKNTKKNEETDLPVSGLFYAIGHTPATKIVAGQVDTDEAGYIKTVPGSSLTSVPGFFAAGDVQDSKYRQAITSAGSGCMAALDAEKYLTSLE	soluble
MFKGSIPALITPFTDNGSVDEKAFAAHVEWQIAEGSNGLVPVGTTGESPTLSHDEHKRVVELCIEVAAKRVPVIAGAGSNNTDEAIELALHAQEAGADALLVVTPYYNKPTQKGLFAHFSAVAEAVKLPIVIYNIPPRSVVDMSPETMGALVKAHKNIIGVKDATGKLDRVSEQRISCGKDFVQLSGEDGTALGFNAHGGVGCISVTANVAPRLCSEFQAAMLAGDYAKALEYQDRLMPLHRAIFMEPGVCGTKYALSKTRGGNRRVRSPLMSTLEPATEAAIDAALKHAGLMN	not soluble
NKDMNFTIRANYTFSQNVIDYFEENKLPYDYLSVTGKPFNILRGYISEGLFASKEEINTSPDQSGFGTIRPGDIKYRDVNGDGIINEDDKVPLSYSNQLPRMMYGFGGDFQWKDLTVSILFKGSAKVDYYRAGLGNDYGWIPFYNGDLGNVIKLANNPKNRWTPAWYSGTTATENPNAEFPRLSYGKNTNNSQLSSFWRRNGSFLRLQEVSLRYSLKHLPWIKSVGLSSVDLEFVANNLFTIDKVKYFDPEQASANGAVYPIPATYAFQVYLRF	not soluble
GMAQRSILVGQIWHEGHSFNPILTREKDFLFLRGEAVLEEARASSTALSGIVKTAEALGYRCVPSISARARPGGAIEQKVFDNIVDEFVQAARMQDFDAICLDLHGATLAEHTLDTEGYLLSRLREVVGNDIMISLALDLHAYLTPQMVEQATIITSFRTTPHADIEETGVRAMTLLDSLSNETRPPRAIYSLIPFLTRGNDETWSGPLAEIGAAADRWRARSDVVDLSIFNVHPFLDVPGYGQVVLAYDNGSGAAIDACRDLSDMLWKARDEFQEQLMSVDKALEIARTSRQLLALGDQGDRVMGAGPGDSPEIARVALEHFPGLKVAVPVYDPQAVRTAREAGENATVRMAVGGAFTHSVAPLERDWTVRKLCRARFTNIGPYMAGTEADFGDAAVLTCDAVTVIVTTMAPNVHDPAFYEAVGVPLASQQAVVARAANHYKLSFADIARTITVDTPGLTAFKPHQFPFTQARPFYPLDIVQWSFAPLECNKVG	soluble
MSLISVIMPVYNCEKYLEESIESILKQTYRDFEFIIVNDGSNDKSIDIINKYANDDNRIVVVSRDNNMGMVYSLNEGIDRAKGSYVARMDADDIALPERFERQIEYLNKNKDVDILACKVEAFGDVSREQKLEREHWYNVDLNNSESIESLFLENCYIAHPSVMMKMSVLKALGGYNLNYKRTEDYNLWLRAIAKGYKIAMLEEKLMKIRLHNDSKIHRDAEGFSSIRDIIQSRLEYVKEKLKLKDFSYVIWGASNGGKIAYEKIKEVFPNAKLNGYIDKFKTGKFEGVDIFYPEDLSKMKVDYVFIATLPGCKEAKGILTKNNFVPIKDFLVLCEGHHHHHH	soluble
MGSDKIHHHHHHMTHLDDMALFVEVVKAKGFRGAADALGMPNSTLSRRIGALEKAIGLRLLHRTTRKVEPTEAGLLYYERSKRIVEEARLVHEQLGEMLAQPSGLLRASFPEGFANIFLAPLVAEFARRYPGIRFEFDLSPRLADLVSDPVDVAIRMGEPANSNLIARQLARLPRHLYASPRYLDMLGEPQHPDELVQHECLRLRGSKSDIWTVQNRDETVDVAVGGRFLLNSVGMIQRLAALDMGIAILAESIVTDDVAQGRLRRVLPQWEATPVPVYALTETRLLPAKTQRFIDFLREHLSSI	not soluble
MARIAGVEIPRNKRVDVALTYIYGIGKARAKEALEKTGINPATRVKDLTEAEVVRLREYVENTWKLEGELRAEVAANIKRLMDIGCYRGLRHRRGLPVRGQRTRTNARTRKGPRKTVAGKKKAPRK	soluble
MSLKVVIGYLALDDWEFESLFPTIEWKYLTHINASFARVKADGTLNINPVRKRIESVRETAHKHNVKILISLAKNSPGEFTTAINDPKARKELIQQIIAFTKEYKLDGFDIDYEEYDNWDKNFPSLLVFARGLYLAKEKNMLMTCAVNSRWLNYGTEWEQYFDYINLMSYDRGAFTDKPVQHASYDDFVKDLKYWNEQCRASKSKIVGGLPFYGYSWEESLQGAVDDVRGIRYSGILKHLGNEAADKDNIGKTYYNGRPTIANKCKFIKENDYAGVMIWQLFQDAHNDNYDLKLINVVGREMMEEGHHHHHH	soluble
MKQPEEELQETLTELDDRAVVDYLRHHPEFFIRNAHAVEAMRVPHPVRGTVSLVEWHMARARNHINVLEENMTLLMEQAHANESLFYRLLHLQSRLVAADSLDEMLVRFHRWARDLGLAGATLRLFPDRWRLGAPSRYTHLALNRQAFEPLRIQRLGQSQHYLGPLNGPELLVVLPEAKAVGSVAMSMMGSDGGLGVILFSSRDPHHYQPGQGTQLLQEIALMLPELLERWIKRVLEHHHHHH	not soluble
MEIDGGPPPFCGVAVDDSYDKSEQHEYDEVDDSPDSTSLPLPSASRSRSVTPVKDMAAGHEAVPEASDNNEKGDTMTTALSQDEFTGFQNSEIQKEEDDDDDEWGDFGEAVVAAAPIQARPQSPPPSLKMDGFNNEDDDDDDDWGAFDQARPSTDRTESSPNSSRSQEARHQQSLDEWGAFENSNDLKANGDEWQAEFSSASDVPPPPSDTVLENLELLDEMLENVEFWHDGFQEECREEEESPEMDVVDIPALFDSENLVEMVNSFEVERQRDSRLWLSLRLVEEAISLKFDWNNSEIRKNHLKSLKINPVTAKKEPRAMNSFFDTSNLLLPTPIQATTTSSSTESSHDSSATATNPKTSSSSPPSSVIDSPSVPAVDFDWDTSGLTNPMNRASKHLHELSKKCRNLVCSVSTNCINLLKCC	not soluble
MGCGFSRQHVVKTNVSSFDRELLDLKIQRDSLQQYEQRLSDSLKNYIKLARRLVAENQRQQALVVLQVKHALQKSIEKAQNMRFNLEQVLSEIELKQIETDYVLKLRTGTKLLQSIQKTLSIEEIEHLLEETKEAIEFQNKVTEVLGSFSLMEIDESCEEELEQLETAMFPPVPKRLEKTMTPQVTENMQVKSETAKEYSKQESILLPS	soluble
MSLKPRVVDFDETWNKLLTTIKAVVMLEYVERATWNDRFSDIYALCVAYPEPLGERLYAETKIFLESHVRHLYRYWEEYSKGADYMDCLYRYLNTQYIKKNKLTEADIQYGYGGVDMNEPLMEIGELALDMWRKLMVEPLQNILIRMLLREIKNDRGGEDPNQKVIHGVINSFVHVEQYKKKFPLKFYQGIFVSPFLTETGEYYKQEASNLLQESNCSQYMEKVLGRLKDEEIRCRKYLHPSSYTKVIHECQQRMVADHLQFLHSECHSIIQQERKNDMANMYVLLRAVSSGLPHMIEELQKHIHDEGLRATSNLTQEHMPTLFVESVLEVHGKFVQLINTVLNGDQHFMSALDKALTSVVNYREPKSVCKAPELLAKYCDNLLKKSAKGMTENEVEDKLTSFITVFKYIDDKDVFQKFYARMLAKRLIHGLSMSMDSEEAMINKLKQACGYEFTSKLHRMYTDMSVSADLNNKFNNFIRNQDTVIDLGISFQIYVLQAGAWPLTQAPSSTFAIPQELEKSVQMFELFYSQHFSGRKLTWLHYLCTGEVKMNYLGKPYVAMVTTYQMAVLLAFNNSETVSYKELQDSTQMNEKELTKTIKSLLDVKMINHDSEKEDIDAESSFSLNMSFSSKRTKFKITTSMQKDTPQELEQTRSAVDEDRKMYLQAAIVRIMKARKVLRHNALIQEVISQSRARFNPSISMIKKCIEVLIDKQYIERSQASADEYSYVA	soluble
MRYCQFEGCSNTTEKGAYCSEHARKSRKKKKPINVYHHDNKSFYRTKEWQDVADFVYEREGGCCQRCGRFVFGRQAHRHHVIPIKKNEMLKLDPNNIRLLCPKCHVIEENEADEKKVFPSYFKKLEHHHHHH	soluble
MRFYIKTFGCQMNENDSEAMAGLLVKEGFTPASSPEEADVVIINTCAVRRKSEEKAYSELGQVLKLKKKKKIVVGVAGCVAEKEREKFLEKGADFVLGTRAVPRVTEAVKKALEGEKVALFEDHLDEYTHELPRIRTSRHHAWVTIIHGCDRFCTYCIVPYTRGRERSRPMADILEEVKKLAEQGYREVTFLGQNVDAYGKDLKDGSSLAKLLEEASKIEGIERIWFLTSYPTDFSDELIEVIAKNPKVAKSVHLPVQSGSNRILKLMNRRYTKEEYLALLEKIRSKVPEVAISSDIIVGFPTETEEDFMETVDLVEKAQFERLNLAIYSPREGTVAWKYYKDDVPYEEKVRRMQFLMNLQKRINRKLNERYRGKTVRIIVEAQAKNGLFYGRDIRNKIIAFEGEDWMIGRFADVKVEKITAGPLYGKVVWVEKTPSPVSSSE	soluble
